Data as given in patent publication US20250101134A1, “ANAPLASTIC LYMPHOMA KINASE ANTIBODIES AND METHODS OF USE THEREOF” (The Children's Hospital of Philadelphia, priority 2022, published 2025).

B1: VH20-OKT3-Fc BiTE (bispecific antibody, part only; not given: anti-CD3 scFv, linkers and Fc, not shown: a dimerising Fc or GST)
chain (part 1 of 2), part: EVQLVESGGGVVQPGRSLRLSCAASGFTFSSYAMHWVRQAPGKGLEWVAAIWYDGSNQYYADSVKGRFTISRDDSTNTLYLQMNSLRAEDTALYYCAKSSYYDSSGYYFPYGYWGQGTLVTVSS
chain (part 2 of 2), part: HHHHHH
B2: VH20 (other)
VH: B1 chain (part 1 of 2), part
notes: Single-domain antibody (isolated VH domain) found by phage panning on the ALK G-rich domain antigen; For the internalization assay it was labelled with pHrodo Deep Red dye
B3: VH78 (other)
VH: EVQLVESGGGVVQPGRSLRLSCAASGFTFSSYAMHWVRQAPGKGLEWMGIIYPGDSDTRYSPSFQGHVTISRDDSTNTLYLQMNSLRAEDTATYYCARERGWQDAFDIWGQGTLVTVSS
notes: Single-domain antibody (isolated VH domain) found with the ALK G-T domain antigen

Assays:
[1] = biological target: T1, ALK extracellular domain expressed on the cell surface of 293T cells (293T-ALK) (Homo sapiens, UniProt Q9UM73); assay: cell-based or functional assay
[2] = biological target: cell surface ALK on neuroblastoma cells (IMR32, SY5Y-D3, SY5Y) (human) (UniProt Q9UM73); assay: cell-based or functional assay
293T cells [3] = assay: Flow cytometry binding of VHs to 293T cells (non-specific binding); settings: VH at 1 μM, anti-FLAG-PE detection
Experimental: (§1) FIG. 1A provides a schematic of ALK. MAM1, LDLa, MAM2, G-rich, G-T domains and full-length ALK extracellular domain (ALK-Ecto) were expressed separately for phage panning. Briefly, 293T and 293T-ALK cells were stained with different VH antibodies at a concentration of 1 μM in […] PBS for 30 minutes on ice. The cells were washed with 1 mL PBS three times and incubated with anti-FLAG-PE antibody (1:200, BioLegend) for 30 minutes on ice. The FLAG tag comprises the sequence: DYKDDDDK (SEQ ID NO: 9). The stained cells were then washed with 1 mL PBS three times. Antibody binding was detected on a BD™ LSR II (BD Biosciences, San Jose, CA). Fluorescence activated cell sorting (FACS) data analysis was performed using FlowJo_V10_CL.
(§2) FIGS. 1B and 1C show the flow cytometry results with various VHs binding to ALK extracellular domain expressed on the cell surface of 293T cells (293T-ALK). VH9 and VH20 were identified with the G-rich domain antigen while VH5 and VH78 were identified with the G-T domain antigen.

[4] = Aggregation by dynamic light scattering (DLS); format: physicochemical; settings: 5 mg/mL in PBS, 37° C., day 0 to day 14
Experimental: The 4 VHs were studied by dynamic light scattering (DLS). Briefly, VH antibodies were buffer changed with PBS and filtered with a […] filter.
Antibody concentration was adjusted to 5 mg/mL. 500 μL samples were incubated at 37° C. for DLS. Samples were measured at day 0, day 1, day 4, day 7, and day 14 on Zetasizer Nano-ZS ZEN 3600 (Malvern Instruments Limited; Malvern, UK) to determine the size distributions of protein particles.

[5] = Size exclusion chromatography (SEC); format: physicochemical; settings: Superdex 200 Increase 10/300 GL, DPBS
Experimental: VH20 was also studied by size exclusion chromatography (SEC). 200 μL (1 μg/mL) filtered samples were used for analysis. A Superdex® 200 Increase 10/300 GL column (GE Healthcare, Cat. No. 28990944) was used for the SEC. The column was calibrated with protein molecular mass standards of ferritin (440 kDa), aldolase (158 kDa), conalbumin (75 kDa), ovalbumin (44 kDa), carbonic anhydrase (29 kDa), and ribonuclease A (13.7 kDa). Protein was eluted by Dulbecco's phosphate-buffered saline (DPBS) buffer at a flow rate of 0.5 mL/minute.
Size exclusion chromatography (SEC) was also performed to characterize VH20-OKT3-Fc BiTE. Briefly, 200 μL (1 μg/mL) filtered samples were used for analysis. Superdex® 200 Increase 10/300 GL columns (GE Healthcare, Cat. No. 28990944) were used. The column was calibrated with protein molecular mass standards of ferritin (440 kDa), aldolase (158 kDa), conalbumin (75 kDa), ovalbumin (44 kDa), carbonic anhydrase (29 kDa), and ribonuclease A (13.7 kDa). Protein was eluted by DPBS buffer at a flow rate of 0.5 mL/minute.

ALK = assay: BLItz competition with KTN0239-IgG for ALK; format: binding; settings: Protein A biosensor, KTN0239-IgG loaded, then ALK, then VH20
Description: The ability of VH20 to compete with KTN0239 was also studied. KTN0239 is a humanized variant of KTN0125 (Sano et al. (2016) Cancer Res., 76(14 Suppl):Abstract2690) and can bind the G rich domain of ALK. A Protein A biosensor (18-5010, BLItz® system, ForteBio; Freemont, CA) was used to immobilization KTN0239-IgG. DPBS (pH=7.4) was used for the baseline and determine dissociation. The detection conditions used were (I) baseline 30 seconds; (II) loading KTN0239-IgG for 120 seconds; (III) baseline 30 seconds; (IV) association for 120 seconds with ALK; and (V) association for 120 seconds with VH20.

[6] = biological target: T2, cell surface ALK on IMR32 cells (Homo sapiens, UniProt Q9UM73); assay: FACS binding to IMR32 cells; settings: 1 μM, positive cell line
T2 construct: endogenous in cells; host or cells: IMR32
Experimental: (§3) The ability of VH20 bind ALK expressing cells was also studied by FACS. SK-N-AS (negative cell line), IMR32 (positive cell line), SY5Y-D3 (positive cell line) cells were stained with VH20 at a concentration of 1 μM in 200 μL PBS for 30 minutes on ice. The cells were washed with 1 mL PBS three times and incubated with anti-Flag-PE antibody (1:200, BioLegend) for 30 minutes on ice. The cells were again washed with 1 mL PBS three times. Antibody binding was detected on a BD™ LSR II (San Jose, CA). FACS data analysis was performed using FlowJo_V10_CL.

[7] = tested on: cell surface ALK on SY5Y-D3 cells; assay: FACS binding to SY5Y-D3 cells; settings: 1 μM, positive cell line
Experimental: as §3

SK-N-AS cells = assay: FACS binding to SK-N-AS cells (negative cell line); settings: 1 μM
Experimental: as §3

293T-ALK cells [8] = assay: Internalization of pHrodo Deep Red labelled VH20, 293T-ALK; format: cell-based; settings: pHrodo Deep Red conjugated VH20, 24 hours, flow cytometer
Experimental: (§4) VH20 internalization was also characterized. For the internalization studies, VH20 was conjugated with pHrodo™ Deep Red dye using the pHrodo™ Deep Red Antibody Labeling Kit (Thermo). The conjugated VH20 was incubated with 293T and 293T-ALK cells for 24 hours at different concentrations. VH20 internalization was measured by a flow cytometer.

293T cells [9] = assay: Internalization of pHrodo Deep Red labelled VH20, 293T; format: cell-based; settings: pHrodo Deep Red conjugated VH20, 24 hours, flow cytometer
Experimental: as §4

[10] = biological target: T3, ALK-Fc, a fusion of the ALK extracellular domain and human IgG1 Fc (human, UniProt Q9UM73 19-1038); assay: ELISA, ALK-Fc coated, anti-Flag-HRP detection
T3 construct: not shown: human IgG1 Fc
Experimental: The VHs were further characterized. First, the binding affinities of the VHs were studied in an ELISA assay using a fusion protein comprising the ALK extracellular domain fused to the human IgG1 Fc (ALK-Fc). ELISA plates (Corning 3690; Tewksbury, MA) were coated with 50 μl antigen (5 μg/ml diluted with 1×PBS) at 4° C. overnight. The next day, blocking was performed with 150 μL 5% milk-PBS (Bio-RAD; Hercules, CA) at room temperature for two hours. Then, the plates were washed with 0.05% PBST three times. 3-fold serial diluted VH antibodies (in 5% PBS-Milk) was added into each well and incubated at room temperature for 1 hour and then washed with PBST 4 times. Next, 50 μL anti-Flag-HRP (1:1000 dilution in 5% PBS-Milk, Thermo; Waltham, MA) was added into each well and incubated at room temperature for 1 hour and then washed 5 times with PBST. 50 μL 3,3′,5,5′-tetramethylbenzidine (TMB) substrate (Sigma; St. Louis, MO) was added into each well and color was allowed to develop for 1-2 minutes before stopping with 50 μL H₂SO₄ (1M, Sigma). Plates were read at 450 nm absorbance. The ELISA results were analyzed using GraphPad Prism 9.0.2.

[11] = biological target: T1, ALK extracellular domain expressed on the cell surface of 293T cells (293T-ALK); assay: Flow cytometry binding of VHs to 293T-ALK cells; set-up: expressed in transfected cells; host or cells: 293T; settings: VH at 1 μM, anti-FLAG-PE detection
Experimental: as §1, §2

293T-ALK cells [12] = assay: Anti-ALK CAR-T cell cytotoxicity (LDH release); format: cell-based; settings: CAR-T cells comprising the VH, effector:target 1.25:1 to 20:1, 48 hours
Experimental: The cytotoxicity of anti-ALK CAR-T cells against 293T and 293T-ALK cells was also studied. Anti-ALK CAR-T cells (effector cells) were incubated with 293T and 293T-ALK cells at the effector: target ratios of 1.25:1, 2.5:1, 5:1, 10:1 and 20:1 for 48 hours in a 96-well cell culture plate (Corning). The co-cultures of CAR-T cells with 293T cells were used as negative controls. Cytotoxicity was determined by detecting specific lactate dehydrogenase (LDH) released into the medium from the target cells with cytotoxicity LDH detection kit (Promega) according to the manufacturer's instructions. Percent cytotoxicity was calculated with the following formula: Cytotoxicity (%)=(Experimental lysis−Effector spontaneous lysis−Target spontaneous lysis)/(Target maximum lysis−Target spontaneous lysis)×100%. Anti-ALK CAR-T cells were co-cultured with 293T cells as negative controls.

T1 sequence (Q9UM73 19-1038): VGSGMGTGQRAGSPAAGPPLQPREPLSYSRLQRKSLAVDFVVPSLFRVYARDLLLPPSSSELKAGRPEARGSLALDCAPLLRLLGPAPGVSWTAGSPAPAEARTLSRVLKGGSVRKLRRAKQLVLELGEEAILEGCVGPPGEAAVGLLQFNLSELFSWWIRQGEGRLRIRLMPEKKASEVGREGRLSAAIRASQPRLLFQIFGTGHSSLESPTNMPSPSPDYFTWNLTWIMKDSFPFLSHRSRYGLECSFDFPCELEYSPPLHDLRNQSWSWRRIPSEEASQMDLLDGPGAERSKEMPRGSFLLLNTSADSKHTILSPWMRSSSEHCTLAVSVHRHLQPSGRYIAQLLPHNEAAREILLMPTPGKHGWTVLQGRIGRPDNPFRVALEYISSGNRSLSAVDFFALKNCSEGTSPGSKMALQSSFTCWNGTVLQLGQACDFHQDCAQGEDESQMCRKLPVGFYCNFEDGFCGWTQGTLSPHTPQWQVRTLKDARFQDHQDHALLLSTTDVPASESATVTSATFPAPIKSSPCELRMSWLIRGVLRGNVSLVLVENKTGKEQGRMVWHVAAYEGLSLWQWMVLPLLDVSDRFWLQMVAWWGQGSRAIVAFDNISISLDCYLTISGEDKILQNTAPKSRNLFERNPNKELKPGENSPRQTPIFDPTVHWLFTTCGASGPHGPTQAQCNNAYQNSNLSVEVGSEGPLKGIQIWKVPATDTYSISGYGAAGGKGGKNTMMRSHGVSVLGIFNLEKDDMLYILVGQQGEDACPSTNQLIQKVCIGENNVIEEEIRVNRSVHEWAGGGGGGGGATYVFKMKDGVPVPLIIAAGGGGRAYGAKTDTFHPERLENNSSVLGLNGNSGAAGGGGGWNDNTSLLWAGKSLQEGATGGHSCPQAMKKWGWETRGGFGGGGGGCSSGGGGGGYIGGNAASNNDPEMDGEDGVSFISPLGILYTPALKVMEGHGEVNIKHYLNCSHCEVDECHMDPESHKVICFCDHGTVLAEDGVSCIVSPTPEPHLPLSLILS
Chain of cell surface ALK on neuroblastoma cells (IMR32, SY5Y-D3, SY5Y) (human) (Q9UM73 19-1620): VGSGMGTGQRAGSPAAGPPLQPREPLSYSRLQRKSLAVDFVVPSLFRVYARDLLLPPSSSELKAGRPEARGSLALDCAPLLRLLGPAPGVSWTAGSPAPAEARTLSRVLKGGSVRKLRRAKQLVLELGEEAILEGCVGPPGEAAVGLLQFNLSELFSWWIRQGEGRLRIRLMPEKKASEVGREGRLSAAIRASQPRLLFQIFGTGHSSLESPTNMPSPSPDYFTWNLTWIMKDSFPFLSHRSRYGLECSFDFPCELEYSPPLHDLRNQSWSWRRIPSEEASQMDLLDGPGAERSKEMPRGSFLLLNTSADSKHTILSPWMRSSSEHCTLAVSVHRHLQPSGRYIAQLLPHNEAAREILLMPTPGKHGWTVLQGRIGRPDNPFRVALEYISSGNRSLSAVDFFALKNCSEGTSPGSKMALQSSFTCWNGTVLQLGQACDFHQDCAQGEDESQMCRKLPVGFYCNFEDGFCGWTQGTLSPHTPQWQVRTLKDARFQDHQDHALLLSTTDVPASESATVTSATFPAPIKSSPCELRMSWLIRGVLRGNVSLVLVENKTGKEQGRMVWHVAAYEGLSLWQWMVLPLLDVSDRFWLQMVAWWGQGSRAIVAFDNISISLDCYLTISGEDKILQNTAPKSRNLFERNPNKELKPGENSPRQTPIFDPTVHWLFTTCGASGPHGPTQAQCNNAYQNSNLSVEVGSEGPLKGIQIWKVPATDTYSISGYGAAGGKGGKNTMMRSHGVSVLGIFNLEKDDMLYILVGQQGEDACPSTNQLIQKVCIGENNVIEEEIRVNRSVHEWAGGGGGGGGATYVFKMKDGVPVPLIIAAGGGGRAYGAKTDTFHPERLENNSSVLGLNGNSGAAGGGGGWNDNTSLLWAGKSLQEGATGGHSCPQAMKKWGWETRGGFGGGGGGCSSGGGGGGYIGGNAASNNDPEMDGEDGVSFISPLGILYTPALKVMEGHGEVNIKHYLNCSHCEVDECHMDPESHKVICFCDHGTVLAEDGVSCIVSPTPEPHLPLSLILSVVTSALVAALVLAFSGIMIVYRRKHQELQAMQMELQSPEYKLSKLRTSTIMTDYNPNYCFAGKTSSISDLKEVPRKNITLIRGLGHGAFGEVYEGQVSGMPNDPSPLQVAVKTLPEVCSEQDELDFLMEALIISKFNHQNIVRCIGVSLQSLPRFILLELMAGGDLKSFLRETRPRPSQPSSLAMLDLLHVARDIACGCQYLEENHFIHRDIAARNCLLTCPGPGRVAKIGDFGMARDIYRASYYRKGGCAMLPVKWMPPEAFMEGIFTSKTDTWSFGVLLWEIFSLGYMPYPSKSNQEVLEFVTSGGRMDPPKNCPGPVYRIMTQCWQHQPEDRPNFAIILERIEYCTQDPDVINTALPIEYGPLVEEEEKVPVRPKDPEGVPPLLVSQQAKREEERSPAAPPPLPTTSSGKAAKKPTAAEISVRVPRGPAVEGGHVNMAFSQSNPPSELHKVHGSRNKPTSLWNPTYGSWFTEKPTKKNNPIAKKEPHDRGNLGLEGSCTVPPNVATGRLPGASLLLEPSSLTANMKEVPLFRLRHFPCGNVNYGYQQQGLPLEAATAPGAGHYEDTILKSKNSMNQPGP
T3 sequence (Q9UM73 19-1038): as the sequence (Q9UM73 19-1038) above
T2 sequence (Q9UM73 19-1620): as the sequence (Q9UM73 19-1620) above
Chain of cell surface ALK on SY5Y-D3 cells (Q9UM73 19-1038 limits assumed): as the sequence (Q9UM73 19-1038) above
T1 sequence (Q9UM73 733-960 limits assumed): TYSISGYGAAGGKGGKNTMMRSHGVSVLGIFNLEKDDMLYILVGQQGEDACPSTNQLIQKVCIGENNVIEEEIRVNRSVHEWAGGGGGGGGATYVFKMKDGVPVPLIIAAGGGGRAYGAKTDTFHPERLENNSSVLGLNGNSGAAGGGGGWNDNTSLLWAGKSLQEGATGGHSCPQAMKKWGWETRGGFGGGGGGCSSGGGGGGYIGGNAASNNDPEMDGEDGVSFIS

Row | Molecule | cytotoxicity IC50 (LDH release, activated Pan-T cells, E:T=4:1, 24 hours) [1] | cytotoxicity IC50 on IMR32 cells (LDH release, activated Pan-T cells, E:T=4:1, 24 hours) [2] | cytotoxicity IC50 on SY5Y cells (LDH release, activated Pan-T cells, E:T=4:1, 24 hours) [2] | non-specific binding with 293T cells (293T cells [3]) | aggregation by DLS [4] | oligomeric state by SEC [5] | competition with KTN0239-IgG (ALK) | binding cell surface ALK on IMR32 cells [6] | binding cell surface ALK on SY5Y-D3 cells [7] | binding to SK-N-AS cells (SK-N-AS cells) | internalization into 293T-ALK cells (293T-ALK cells [8]) | non-specific internalization in 293T cells (293T cells [9]) | EC50 [10] | binding with 293T-ALK cells [11] | cytotoxicity of anti-ALK CAR-T cells (293T-ALK cells [12])
1 | B1 | 0.01 nM | 0.1 nM | 0.15 nM | – | – | – | – | – | – | – | – | – | – | – | –
2 | B2 | – | – | – | no significant non-specific binding | lower aggregation | dimer | not in competition | capable of binding | capable of binding | not | effectively internalized | no non-specific internalization was detected | ~0.4 nM | good binding | –
3 | B3 | – | – | – | no significant non-specific binding | – | – | – | – | – | – | – | – | ~1.32 nM | good binding | greater cytotoxicity
